Columns and labels:
HLA-A*0201 [1] = target: T1, HLA-A*0201 (human); assay: competition with 125I-labelled standard peptide 941.01 for purified HLA, gel filtration
T1 construct: also called HLA-A2.1

HLA-B*5101 [2] = target: HLA-B*5101 (human); assay: competition with 125I probe peptide, purified HLA
HLA-B*5401 [3] = target: HLA-B*5401 (human); assay: competition with 125I probe peptide, purified HLA
HLA-B*0702 [4] = target: HLA-B*0702 (human); assay: competition with 125I probe peptide, purified HLA
HLA-B*5301 [5] = target: HLA-B*5301 (human); assay: competition with 125I probe peptide, purified HLA
HLA-A*0201 [6] = target: T2, HLA-A*0201 (human); assay: competition with 125I-labelled standard peptide for purified HLA-A*0201, gel filtration; ratio to the standard peptide
T2 construct: Purified HLA class I molecule; also called HLA-A2.1

HLA-B*5301 [7] = target: HLA-B*5301 (human); assay: competition vs 125I-labelled probe peptide, purified HLA, gel filtration
HLA-B*5401 [8] = target: HLA-B*5401 (human); assay: as above
HLA-B*5101 [9] = target: HLA-B*5101 (human); assay: as above
HLA-B*0702 [10] = target: HLA-B*0702 (human); assay: as above
HLA-A*0201 [11] = target: T3, HLA-A*0201 (human); assay: competitive inhibition of 125I-labelled standard peptide binding to purified HLA, gel filtration
T3 construct: also called HLA-A2.1

For AALCRWGLLL (also called Her2/neu.4 (10-mer)) [HER2/neu peptide, position 4, 10 amino acids], which relative binding ratio (HLA-A*0201 [1]) is on record?
The relative binding ratio was 0.001 ratio (IC50 of standard peptide / IC50 of test peptide).

Which relative binding ratio (HLA-A*0201 [1]) does the source give for AARPAGATL (also called Her2/neu.1159 (9-mer)) [HER2/neu peptide, position 1159, 9 amino acids] here?
Its relative binding ratio is 0.0001 ratio (IC50 of standard peptide / IC50 of test peptide).

With ALLPPGAAST (also called Her2/neu.14 (10-mer)) [HER2/neu peptide, position 14, 10 amino acids] as the binder, how does the relative binding ratio (HLA-A*0201 [1]) read?
Its relative binding ratio is 0.0001 ratio (IC50 of standard peptide / IC50 of test peptide).

ALVTYNTDT (also called Her2/neu.270 (9-mer)) [HER2/neu peptide, position 270, 9 amino acids] was tested. Which relative binding ratio (HLA-A*0201 [1]) did it give?
Its relative binding ratio is 0.0001 ratio (IC50 of standard peptide / IC50 of test peptide).

AMPNQAQMRI (also called Her2/neu.705 (10-mer)) [HER2/neu peptide, position 705, 10 amino acids] was tested. Which relative binding ratio (HLA-A*0201 [1]) did it give?
Its relative binding ratio is 0.0007 ratio (IC50 of standard peptide / IC50 of test peptide).

How did the relative binding ratio (HLA-A*0201 [1]) turn out when AVLDNGDPL (also called Her2/neu.115 (9-mer)) [HER2/neu peptide, position 115, 9 amino acids] was run?
The relative binding ratio was 0.0004 ratio (IC50 of standard peptide / IC50 of test peptide).

With CARVCYGLGM (also called Her2/neu.338 (10-mer)) [HER2/neu peptide, position 338, 10 amino acids] as the binder, how does the relative binding ratio (HLA-A*0201 [1]) read?
The relative binding ratio was 0.0011 ratio (IC50 of standard peptide / IC50 of test peptide).

For CVARCPSGV (also called Her2/neu.596 (9-mer)) [HER2/neu peptide, position 596, 9 amino acids], which relative binding ratio (HLA-A*0201 [1]) is on record?
The relative binding ratio was 0.0004 ratio (IC50 of standard peptide / IC50 of test peptide).

CVTACPYNYL (also called Her2/neu.295 (10-mer)) [HER2/neu peptide, position 295, 10 amino acids] was tested. Which relative binding ratio (HLA-A*0201 [1]) did it give?
The relative binding ratio was 0.0001 ratio (IC50 of standard peptide / IC50 of test peptide).

For DIFHKNNQL (also called Her2/neu.171 (9-mer)) [HER2/neu peptide, position 171, 9 amino acids], which relative binding ratio (HLA-A*0201 [1]) is on record?
The relative binding ratio was 0.0002 ratio (IC50 of standard peptide / IC50 of test peptide).

Which relative binding ratio (HLA-A*0201 [1]) does the source give for DIQEVQGYV (also called Her2/neu.76 (9-mer)) [HER2/neu peptide, position 76, 9 amino acids] here?
Its relative binding ratio is 0.0001 ratio (IC50 of standard peptide / IC50 of test peptide).

How did the relative binding ratio (HLA-A*0201 [1]) turn out when DIQEVQGYVL (also called Her2/neu.76 (10-mer)) [HER2/neu peptide, position 76, 10 amino acids] was run?
Its relative binding ratio is 0.0001 ratio (IC50 of standard peptide / IC50 of test peptide).

For DLAARNVLV (also called Her2/neu.845 (9-mer)) [HER2/neu peptide, position 845, 9 amino acids], which relative binding ratio (HLA-A*0201 [1]) is on record?
The relative binding ratio was 0.0002 ratio (IC50 of standard peptide / IC50 of test peptide).

DLGMGAAKGL (also called Her2/neu.1089 (10-mer)) [HER2/neu peptide, position 1089, 10 amino acids] was tested. Which relative binding ratio (HLA-A*0201 [1]) did it give?
Its relative binding ratio is 0.0001 ratio (IC50 of standard peptide / IC50 of test peptide).

DLLEKGERL (also called Her2/neu.933 (9-mer)) [HER2/neu peptide, position 933, 9 amino acids] was tested. Which relative binding ratio (HLA-A*0201 [1]) did it give?
The relative binding ratio was 0.0002 ratio (IC50 of standard peptide / IC50 of test peptide).

Which IC50 (HLA-B*5101 [2]) does the source give for FPGGLRELQI (analog peptide) [Her2/neu.133.F1I10] here?
The IC50 was 1770 nM.

And the IC50 (HLA-B*5401 [3])?
Its IC50 is 476 nM.

And the IC50 (HLA-B*0702 [4])?
Its IC50 is 306 nM.

What about the IC50 (HLA-B*5301 [5]) of the same binder?
Its IC50 is 310 nM.

With FPMCKGSRCI (analog peptide) [Her2/neu.196.F1] as the binder, how does the IC50 (HLA-B*5101 [2]) read?
The IC50 was 500 nM.

And the IC50 (HLA-B*5401 [3])?
The IC50 was 303 nM.

And the IC50 (HLA-B*0702 [4])?
Its IC50 is 183 nM.

And the IC50 (HLA-B*5301 [5])?
Its IC50 is 6640 nM.

Which results are given for CPLHNQEVTI (analog peptide) [Her2/neu.315.I10]?
IC50 (HLA-B*5101 [2]): 42 nM; IC50 (HLA-B*5401 [3]): 556 nM; IC50 (HLA-B*0702 [4]): 458 nM; IC50 (HLA-B*5301 [5]): 274 nM

With FVHTVPWDQL (Synthetic peptide) [HER2/neu peptide, position 476, 10 amino acids] as the binder, how does the “relative binding ratio (IC50 of standard peptide / IC50 of test peptide)” value (HLA-A*0201 [6]) read?
Its value is 0.0001 ratio.

Which “relative binding ratio (IC50 of standard peptide / IC50 of test peptide)” value (HLA-A*0201 [6]) does the source give for FVVIQNEDL (Synthetic peptide) [HER2/neu peptide, position 986, 9 amino acids] here?
Its value is 0.0002 ratio.

Which “relative binding ratio (IC50 of standard peptide / IC50 of test peptide)” value (HLA-A*0201 [6]) does the source give for GAAKGLQSL (Synthetic peptide) [HER2/neu peptide, position 1093, 9 amino acids] here?
The value was 0.0001 ratio.

How did the “relative binding ratio (IC50 of standard peptide / IC50 of test peptide)” value (HLA-A*0201 [6]) turn out when GAFGTVYKGI (Synthetic peptide) [HER2/neu peptide, position 729, 10 amino acids] was run?
The value was 0.0001 ratio.

GAMPNQAQM (T0001 prints N at position 706) [HER2/neu peptide, position 704, 9 amino acids] was tested. Which “relative binding ratio (IC50 of standard peptide / IC50 of test peptide)” value (HLA-A*0201 [6]) did it give?
The value was 0.0002 ratio.

B1: Her2/neu.995.F1I10 (peptide)
peptide: FPASPLDSTI
notes: 10-mer analog of the HER2/neu peptide starting at position 995
B1 was tested. Which IC50 (HLA-B*5301 [7]) did it give?
The IC50 was 30 nM.

And the IC50 (HLA-B*5401 [8])?
The IC50 was 14 nM.

And the IC50 (HLA-B*5101 [9])?
Its IC50 is 20 nM.

And the IC50 (HLA-B*0702 [10])?
Its IC50 is 20 nM.

B2: Her2/neu.1149.F1I11 (peptide)
peptide: FPSPREGPLPI
notes: 11-mer analog of the HER2/neu peptide starting at position 1149
For B2, which IC50 (HLA-B*5301 [7]) is on record?
Its IC50 is 5170 nM.

And the IC50 (HLA-B*5401 [8])?
Its IC50 is 263 nM.

What about the IC50 (HLA-B*5101 [9]) of the same binder?
The IC50 was 262 nM.

And the IC50 (HLA-B*0702 [10])?
The IC50 was 190 nM.

B3: Her2/neu.1151.F1I9 (peptide)
peptide: FPREGPLPI
notes: 9-mer analog of the HER2/neu peptide starting at position 1151
B3 was tested. Which IC50 (HLA-B*5301 [7]) did it give?
Its IC50 is 2820 nM.

What about the IC50 (HLA-B*5401 [8]) of the same binder?
The IC50 was 4 nM.

What about the IC50 (HLA-B*5101 [9]) of the same binder?
Its IC50 is 14 nM.

And the IC50 (HLA-B*0702 [10])?
Its IC50 is 0.3 nM.

B4: Her2/neu.1157.F1I9 (peptide)
peptide: FPAARPAGI
notes: 9-mer analog of the HER2/neu peptide starting at position 1157
B4 was tested. Which IC50 (HLA-B*5301 [7]) did it give?
The IC50 was 4230 nM.

And the IC50 (HLA-B*5401 [8])?
The IC50 was 48 nM.

What about the IC50 (HLA-B*5101 [9]) of the same binder?
The IC50 was 131 nM.

And the IC50 (HLA-B*0702 [10])?
The IC50 was 9.3 nM.

With LVCPLHNQEV (Synthetic peptide) [HER2/neu A02 supermotif peptide, position 313, 10 amino acids] as the binder, how does the “relative binding ratio (IC50 of standard peptide / IC50 of test peptide)” value (HLA-A*0201 [11]) read?
Its value is 0.0002 ratio.

Which “relative binding ratio (IC50 of standard peptide / IC50 of test peptide)” value (HLA-A*0201 [11]) does the source give for LVDAEEYLV (Synthetic peptide) [HER2/neu A02 supermotif peptide, position 1017, 9 amino acids] here?
The value was 0.003 ratio.

— patent US20040018971A1 (published 2004)
